Results: patent publication US20230002798A1, “PROCESS FOR THE PREPARATION OF A FERMENTABLE SUGAR COMPOSITION AND THE FERMENTATION THEREOF” (WeissBioTech GmbH, priority 2019, published 2023)

Assay type: biochemical
Conditions: pH 5
Experimental: For activity measurements, the enzyme Agl1 was incubated with 10 mM and 50 mM panose, isomaltose, isomaltotriose, maltose, maltotriose, and trehalose for 10 min at 37° C. in Britton-Robertson buffer, pH 5. The enzyme Gth was incubated with 15 mM panose, 10 and 50 mM isomaltose, and 10, 50 and 100 mM maltotriose and trehalose for 10 min at 37° C. in Britton-Robertson buffer, pH 5. The reaction was stopped with 60 μL of 1 M NaOH, followed by addition of 60 μL of 1 M HCL. The amount of produced glucose was quantified using a standardized glucose assay kit (D-Glucose HK Assay Kit, Megazyme u.c. IRE). Glucose concentration was determined as specified in the instructions. Units are defined as the amount of enzyme required to produce one μmol of glucose per minute.

B1: Agl1: oligo-1,6-glucosidase of Bifidobacterium breve UCC2003, amino acid sequence SEQ ID NO:1, expressed in Bacillus subtilis (protein)
chain: MMTTFNRAIIPDAIRTNGATPNPWWSNAVVYQIYPRSFQDTNGDGFGDLKGITSRLDYLADLGVDVLWLSPVYKSPQDDNGYDISDYQDIDPLFGTLDDMDELLAEAHKRGLKVVMDLVVNHTSDEHAWFEASKNKDDEHADWYWWRPARPGTTPGEPGSEPNQWGSYFGGSAWEYCPERGEYYLHQFSKKQPDLNWENPAVRRAVYDMMNWWLDRGIDGFRMDVITLISKRTDANGRLPGEYGSELDDLPVGEEGYSNPNPFCADGPRQDEFLKEMRREVFAGREGFLTVGEAPGITPVRNEHITNPANGELDMLFLFDHVDFDCDGVKWKPLPLDLPGFKRIMAGYQTAVENVGWASLFTGNHDQPRVVSRWGDDSSEESRVRSAKALGLMLHMHRGTPYVYQGEELGMTNAHFTSLDQYRDLESLNAYRQRVEEAKVQSPESMLAGIAARGRDNSRTPMQWDGSAYAGFTAPDAATEPWISVNPNHAEINAAGEFDDPDSVYAFYKKLIALRHNSSIVAAGEWQLIDADDAHVYAFTRTLGNERLLVVVNLSGRTVDLPRESTELIAGGVTEPDIILSTYDAPHTVVSLANRELDPWEAAAVQL
modifications: Bifidobacterium breve UCC2003; ACM89182.1 alpha-glucosidase 1
substrate degradation (activity on trehalose): breaks down trehalose
